Tests used:
P9bH1 = target: T1, P9bH1; experiment: two-hybrid library CCNG1;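 further: natural log of median RNA to DNA barcode read ratio; higher means stronger binding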
T1 chain: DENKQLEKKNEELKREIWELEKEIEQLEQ

P12bH1 = target: T2, P12bH1; experiment: two-hybrid library CCNG1;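 further: natural log of median RNA to DNA barcode read ratio; higher means stronger binding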
T2 chain: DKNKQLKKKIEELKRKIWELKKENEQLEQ

P8bH1 = target: T3, P8bH1; experiment: two-hybrid library CCNG1;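 further: natural log of median RNA to DNA barcode read ratio; higher means stronger binding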
T3 chain: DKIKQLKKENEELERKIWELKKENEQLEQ

P5bH1 = target: T4, P5bH1; experiment: two-hybrid library CCNG1;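 further: natural log of median RNA to DNA barcode read ratio; higher means stronger binding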
T4 chain: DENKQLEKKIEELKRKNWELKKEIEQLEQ

P4bH1 = target: T5, P4bH1; experiment: two-hybrid library CCNG1
T5 chain: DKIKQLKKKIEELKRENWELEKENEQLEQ

P3bH1 = target: T6, P3bH1; experiment: two-hybrid library CCNG1
T6 chain: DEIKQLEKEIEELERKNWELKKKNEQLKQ

P6bH1 = target: T7, P6bH1; experiment: two-hybrid library CCNG1
T7 chain: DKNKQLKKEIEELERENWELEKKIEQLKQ

P1bH1 = target: T8, P1bH1; experiment: two-hybrid library CCNG1
T8 chain: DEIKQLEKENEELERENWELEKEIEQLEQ

P2bH1 = target: T9, P2bH1; experiment: two-hybrid library CCNG1
T9 chain: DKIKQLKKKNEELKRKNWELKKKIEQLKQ

P7bH1 = target: T10, P7bH1; experiment: two-hybrid library CCNG1
T10 chain: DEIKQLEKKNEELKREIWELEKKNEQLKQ

4H458-AA = target: T11, 4H458-AA; experiment: two-hybrid library CCmax; conditions: mean of both orientations
T11 chain: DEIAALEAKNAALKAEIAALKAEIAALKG

4H536-AA = target: T12, 4H536-AA; experiment: two-hybrid library CCmax; conditions: mean of both orientations
T12 chain: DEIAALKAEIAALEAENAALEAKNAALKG

4H2649-AA = target: T13, 4H2649-AA; experiment: two-hybrid library CCmax; conditions: mean of both orientations
T13 chain: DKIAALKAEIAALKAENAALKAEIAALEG

4H174-AA = target: T14, 4H174-AA; experiment: two-hybrid library CCmax; conditions: mean of both orientations
T14 chain: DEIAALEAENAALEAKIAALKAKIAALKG

4H3165-AA = target: T15, 4H3165-AA; experiment: two-hybrid library CCmax; conditions: mean of both orientations
T15 chain: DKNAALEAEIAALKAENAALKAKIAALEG

4H2473-AA = target: T16, 4H2473-AA; experiment: two-hybrid library CCmax; conditions: mean of both orientations
T16 chain: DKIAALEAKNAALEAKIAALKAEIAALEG

4H94-AA = target: T17, 4H94-AA; experiment: two-hybrid library CCmax; conditions: mean of both orientations
T17 chain: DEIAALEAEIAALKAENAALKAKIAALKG

4H3753-AA = target: T18, 4H3753-AA; experiment: two-hybrid library CCmax; conditions: mean of both orientations
T18 chain: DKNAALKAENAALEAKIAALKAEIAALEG

4H2330-AA = target: T19, 4H2330-AA; experiment: two-hybrid library CCmax; conditions: mean of both orientations
T19 chain: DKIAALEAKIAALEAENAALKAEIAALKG

4H1579-AA = target: T20, 4H1579-AA; experiment: two-hybrid library CCmax; conditions: mean of both orientations
T20 chain: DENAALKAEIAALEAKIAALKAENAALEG

4H171-AA = target: T21, 4H171-AA; experiment: two-hybrid library CCmax; conditions: mean of both orientations
T21 chain: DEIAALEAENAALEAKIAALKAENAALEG

4H2725-AA = target: T22, 4H2725-AA; experiment: two-hybrid library CCmax; conditions: mean of both orientations
T22 chain: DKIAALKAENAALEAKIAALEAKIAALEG

4H2698-AA = target: T23, 4H2698-AA; experiment: two-hybrid library CCmax; conditions: mean of both orientations
T23 chain: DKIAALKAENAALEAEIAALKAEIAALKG

4H930-AA = target: T24, 4H930-AA; experiment: two-hybrid library CCmax; conditions: mean of both orientations
T24 chain: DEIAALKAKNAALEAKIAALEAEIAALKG

4H2253-AA = target: T25, 4H2253-AA; experiment: two-hybrid library CCmax; conditions: mean of both orientations
T25 chain: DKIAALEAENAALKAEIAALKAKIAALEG

4H3016-AA = target: T26, 4H3016-AA; experiment: two-hybrid library CCmax; conditions: mean of both orientations
T26 chain: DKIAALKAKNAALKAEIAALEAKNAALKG

4H891-AA = target: T27, 4H891-AA; experiment: two-hybrid library CCmax; conditions: mean of both orientations
T27 chain: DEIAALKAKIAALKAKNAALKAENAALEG

4H485-AA = target: T28, 4H485-AA; experiment: two-hybrid library CCmax; conditions: mean of both orientations
T28 chain: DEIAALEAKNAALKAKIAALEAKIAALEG

4H3381-AA = target: T29, 4H3381-AA; experiment: two-hybrid library CCmax; conditions: mean of both orientations
T29 chain: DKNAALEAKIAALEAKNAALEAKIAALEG

4H797-AA = target: T30, 4H797-AA; experiment: two-hybrid library CCmax; conditions: mean of both orientations
T30 chain: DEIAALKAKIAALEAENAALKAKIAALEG

4H2162-AA = target: T31, 4H2162-AA; experiment: two-hybrid library CCmax; conditions: mean of both orientations
T31 chain: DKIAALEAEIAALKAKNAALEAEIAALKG

4H909-AA = target: T32, 4H909-AA; experiment: two-hybrid library CCmax; conditions: mean of both orientations
T32 chain: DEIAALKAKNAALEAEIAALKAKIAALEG

4H2274-AA = target: T33, 4H2274-AA; experiment: two-hybrid library CCmax; conditions: mean of both orientations
T33 chain: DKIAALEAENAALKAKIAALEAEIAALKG

4H3395-AA = target: T34, 4H3395-AA; experiment: two-hybrid library CCmax; conditions: mean of both orientations
T34 chain: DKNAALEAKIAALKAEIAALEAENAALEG

4H3590-AA = target: T35, 4H3590-AA; experiment: two-hybrid library CCmax; conditions: mean of both orientations
T35 chain: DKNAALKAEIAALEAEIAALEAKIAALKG

4H310-AA = target: T36, 4H310-AA; experiment: two-hybrid library CCmax; conditions: mean of both orientations
T36 chain: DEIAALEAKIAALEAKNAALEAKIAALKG

4H3410-AA = target: T37, 4H3410-AA; experiment: two-hybrid library CCmax; conditions: mean of both orientations
T37 chain: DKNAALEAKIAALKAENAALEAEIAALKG

4H2865-AA = target: T38, 4H2865-AA; experiment: two-hybrid library CCmax; conditions: mean of both orientations
T38 chain: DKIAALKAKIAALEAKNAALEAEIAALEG

4H2438-AA = target: T39, 4H2438-AA; experiment: two-hybrid library CCmax; conditions: mean of both orientations
T39 chain: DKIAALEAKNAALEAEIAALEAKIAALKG

4H745-AA = target: T40, 4H745-AA; experiment: two-hybrid library CCmax; conditions: mean of both orientations
T40 chain: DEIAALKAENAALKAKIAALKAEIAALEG

4H3120-AA = target: T41, 4H3120-AA; experiment: two-hybrid library CCmax; conditions: mean of both orientations
T41 chain: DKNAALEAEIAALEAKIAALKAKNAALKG

4H629-AA = target: T42, 4H629-AA; experiment: two-hybrid library CCmax; conditions: mean of both orientations
T42 chain: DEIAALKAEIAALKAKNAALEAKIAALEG

4H3009-AA = target: T43, 4H3009-AA; experiment: two-hybrid library CCmax; conditions: mean of both orientations
T43 chain: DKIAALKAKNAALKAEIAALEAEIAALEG

4H3130-AA = target: T44, 4H3130-AA; experiment: two-hybrid library CCmax; conditions: mean of both orientations
T44 chain: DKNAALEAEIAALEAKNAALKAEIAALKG

4H850-AA = target: T45, 4H850-AA; experiment: two-hybrid library CCmax; conditions: mean of both orientations
T45 chain: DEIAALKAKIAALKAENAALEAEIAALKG

4H3697-AA = target: T46, 4H3697-AA; experiment: two-hybrid library CCmax; conditions: mean of both orientations
T46 chain: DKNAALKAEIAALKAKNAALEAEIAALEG

4H1877-AA = target: T47, 4H1877-AA; experiment: two-hybrid library CCmax; conditions: mean of both orientations
T47 chain: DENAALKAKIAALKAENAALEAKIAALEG

4H1597-AA = target: T48, 4H1597-AA; experiment: two-hybrid library CCmax; conditions: mean of both orientations
T48 chain: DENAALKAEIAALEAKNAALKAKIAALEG

4H2389-AA = target: T49, 4H2389-AA; experiment: two-hybrid library CCmax; conditions: mean of both orientations
T49 chain: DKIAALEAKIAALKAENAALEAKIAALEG

4H2109-AA = target: T50, 4H2109-AA; experiment: two-hybrid library CCmax; conditions: mean of both orientations
T50 chain: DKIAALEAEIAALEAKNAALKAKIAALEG

4H1842-AA = target: T51, 4H1842-AA; experiment: two-hybrid library CCmax; conditions: mean of both orientations
T51 chain: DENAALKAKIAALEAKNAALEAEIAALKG

4H710-AA = target: T52, 4H710-AA; experiment: two-hybrid library CCmax
T52 chain: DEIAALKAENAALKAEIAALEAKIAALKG

4H1864-AA = target: T53, 4H1864-AA; experiment: two-hybrid library CCmax; conditions: mean of both orientations
T53 chain: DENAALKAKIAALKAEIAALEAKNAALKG

4H1478-AA = target: T54, 4H1478-AA; experiment: two-hybrid library CCmax
T54 chain: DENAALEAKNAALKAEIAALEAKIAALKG

4H3865-AA = target: T55, 4H3865-AA; experiment: two-hybrid library CCmax; conditions: mean of both orientations
T55 chain: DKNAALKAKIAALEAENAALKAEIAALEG

4H570-AA = target: T56, 4H570-AA; experiment: two-hybrid library CCmax; conditions: mean of both orientations
T56 chain: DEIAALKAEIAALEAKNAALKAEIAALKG

4H1626-AA = target: T57, 4H1626-AA; experiment: two-hybrid library CCmax; conditions: mean of both orientations
T57 chain: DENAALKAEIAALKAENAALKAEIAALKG

DKNKQLKKKIEELKRKIWELKKENEQLEQ [P12bH1]
interaction score (P9bH1): -0.294
interaction score (P12bH1): -1.4
interaction score (P8bH1): -0.578
interaction score (P5bH1): -0.826
interaction score (P4bH1): -0.999
interaction score (P3bH1): -1.43
interaction score (P6bH1): -0.251
interaction score (P1bH1): -0.0192
interaction score (P2bH1): -1.01
interaction score (P7bH1): -0.861

DENAALEAKNAALKAEIAALEAKIAALKG [4H1478-AA]
interaction score (4H458-AA): -0.241
interaction score (4H536-AA): -1.16
interaction score (4H2649-AA): -1.48
interaction score (4H174-AA): 1.4
interaction score (4H3165-AA): -1.68
interaction score (4H2473-AA): 2.04
interaction score (4H94-AA): -1.45
interaction score (4H3753-AA): 2.25
interaction score (4H2330-AA): -1.56
interaction score (4H1579-AA): -0.103
interaction score (4H171-AA): 0.9
interaction score (4H2725-AA): 1.78
interaction score (4H2698-AA): 1.64
interaction score (4H930-AA): -0.754
interaction score (4H2253-AA): -0.889
interaction score (4H3016-AA): -1.29
interaction score (4H891-AA): -1.45
interaction score (4H485-AA): -0.796
interaction score (4H3381-AA): -1.47
interaction score (4H797-AA): -1.28
interaction score (4H2162-AA): -1.13
interaction score (4H909-AA): -0.497
interaction score (4H2274-AA): -0.761
interaction score (4H3395-AA): 1.1
interaction score (4H3590-AA): 0.946
interaction score (4H310-AA): -0.927
interaction score (4H3410-AA): -1
interaction score (4H2865-AA): -1.39
interaction score (4H2438-AA): -0.717
interaction score (4H745-AA): 2.14
interaction score (4H3120-AA): -0.624
interaction score (4H629-AA): -1.23
interaction score (4H3009-AA): 0.472
interaction score (4H3130-AA): -0.211
interaction score (4H850-AA): 0.0104
interaction score (4H3697-AA): -1.54
interaction score (4H1877-AA): -0.558
interaction score (4H1597-AA): -0.494
interaction score (4H2389-AA): 0.0289
interaction score (4H2109-AA): -0.882
interaction score (4H1842-AA): -1.06
interaction score (4H710-AA): -0.15
interaction score (4H1864-AA): 1.68
interaction score (4H1478-AA): 0.0991
interaction score (4H3865-AA): -1.31
interaction score (4H570-AA): -1.51
interaction score (4H1626-AA): -1.52
